Reference: publication doi:10.1101/2022.10.25.513744
Where “and” joins values, the source holds several entries; their conditions need not be identical. Equal values may be shown once.

B1: TRAK1^562-635 (domain or fragment)
chain: MSFSSRSYLPEKLQIVKPLEGSATLHHWQQLAQPHLGGILDPRPGVVTKGFRTLDVDLDEVYCLNDFEEDDTGD

Assays:
Miro1^P13V ΔTM = Miro1^P13V ΔTM (UniProt Q8IXI2); assay: mass photometry
Miro1^P13V-Strep = Miro1^P13V-Strep (UniProt Q8IXI2); assay: pull-down

Sequence of UniProt Q8IXI2 (Q8IXI2 whole entry P13V): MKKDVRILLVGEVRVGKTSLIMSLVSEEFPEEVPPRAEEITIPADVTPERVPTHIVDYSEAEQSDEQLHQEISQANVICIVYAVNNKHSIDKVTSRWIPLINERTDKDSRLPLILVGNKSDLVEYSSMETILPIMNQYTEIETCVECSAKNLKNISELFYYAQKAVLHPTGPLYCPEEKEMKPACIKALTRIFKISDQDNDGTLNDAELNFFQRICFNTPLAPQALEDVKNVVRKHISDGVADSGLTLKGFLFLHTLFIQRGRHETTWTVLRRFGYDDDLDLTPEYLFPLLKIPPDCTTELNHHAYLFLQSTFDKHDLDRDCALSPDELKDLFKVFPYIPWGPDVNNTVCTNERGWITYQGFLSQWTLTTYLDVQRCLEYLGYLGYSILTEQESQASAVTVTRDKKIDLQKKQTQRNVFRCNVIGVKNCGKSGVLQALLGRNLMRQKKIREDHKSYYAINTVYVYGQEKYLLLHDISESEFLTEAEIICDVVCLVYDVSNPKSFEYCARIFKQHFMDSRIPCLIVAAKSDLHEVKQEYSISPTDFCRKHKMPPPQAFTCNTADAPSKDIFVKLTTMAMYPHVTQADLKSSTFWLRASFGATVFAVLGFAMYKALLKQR

| Molecule | percent forming dimers (Miro1^P13V ΔTM) [%] | stoichiometry N (Miro1^P13V ΔTM) | reduction of the TRAK1:Miro1-Strep band intensity against Miro1^WT (Miro1^P13V-Strep) [%] |
| --- | --- | --- | --- |
| Miro1^P13V ΔTM (from UniProt Q8IXI2 1-618) (domain or fragment) | 3 | 3 and 4 |  |
| B1 |  |  | 30 |
